Biological target: recombinant murine IL-12 (R&D Systems) (murine) (UniProt P43431)
Assay: cell-based or functional assay

in vitro neutralization of IL-12 (times (against the anti-p35 mAb)): 5
Substance: C17.8 (rat anti-mouse IL-12/IL-23p40, IgG2a) (antibody)

Reference: patent US7807471
